Reference: patent publication US20210371526A1 (AMPSOURCE BIOPHARMA SHANGHAI, published 2021)
Blank lines part the entries; values can stand above or below the binder they belong to.

What was measured:
[1] = target: T1, CD3 on cynomolgus monkey T cells (CIK cells, primary T cells) (cynomolgus monkey, UniProt Q95LI5 22-198); assay: flow cytometry on cynomolgus monkey primary T cells
T1 construct: whole, on cells; also called cynomolgus monkey CIK cell membrane CD3

[2] = target: T2, CD19 on tumor cells (Raji, Raji-Luc, NALM6, Reh) (human, UniProt P15391 20-556); assay: cell-based or functional assay
T2 sequence (looked up): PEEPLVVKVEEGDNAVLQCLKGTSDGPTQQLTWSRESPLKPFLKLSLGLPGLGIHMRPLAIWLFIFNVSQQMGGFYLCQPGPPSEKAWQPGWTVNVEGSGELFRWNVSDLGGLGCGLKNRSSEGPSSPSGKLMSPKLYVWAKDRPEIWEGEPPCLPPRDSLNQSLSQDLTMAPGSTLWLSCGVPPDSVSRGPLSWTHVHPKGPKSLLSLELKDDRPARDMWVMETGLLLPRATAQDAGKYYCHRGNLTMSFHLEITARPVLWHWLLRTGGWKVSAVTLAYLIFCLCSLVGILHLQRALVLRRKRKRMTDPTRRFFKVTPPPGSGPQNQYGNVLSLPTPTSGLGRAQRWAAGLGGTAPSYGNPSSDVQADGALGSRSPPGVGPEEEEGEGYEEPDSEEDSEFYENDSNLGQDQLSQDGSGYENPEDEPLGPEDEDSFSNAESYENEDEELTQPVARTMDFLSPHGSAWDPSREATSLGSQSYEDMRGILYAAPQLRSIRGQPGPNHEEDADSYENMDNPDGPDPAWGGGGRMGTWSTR

[3] = target: T2, CD19 on tumor cells (Raji, Raji-Luc, …); assay: cell-based or functional assay; remark: listed apart in the source
[4] = target: T2, CD19 on tumor cells (Raji, Raji-Luc, …); assay: cell-based or functional assay; remark: listed apart in the source
[5] = target: T2, CD19 on tumor cells (Raji, Raji-Luc, …); assay: cell-based or functional assay; remark: listed apart in the source
[6] = target: T2, CD19 on tumor cells (Raji, Raji-Luc, …); assay: flow cytometry on CD19-positive Raji cells
[7] = target: T1, CD3 on cynomolgus monkey T cells (CIK …); assay: flow cytometry on cynomolgus monkey CIK/T cells
[8] = target: T2, CD19 on tumor cells (Raji, Raji-Luc, …); assay: FACS on CD19-positive Raji cells, AF647 goat anti-human IgG [left panel]
CD20 on Raji cells [9] = target: T3, CD20 on Raji cells (human, UniProt P11836 1-297); assay: cell-based or functional assay
T3 sequence (looked up): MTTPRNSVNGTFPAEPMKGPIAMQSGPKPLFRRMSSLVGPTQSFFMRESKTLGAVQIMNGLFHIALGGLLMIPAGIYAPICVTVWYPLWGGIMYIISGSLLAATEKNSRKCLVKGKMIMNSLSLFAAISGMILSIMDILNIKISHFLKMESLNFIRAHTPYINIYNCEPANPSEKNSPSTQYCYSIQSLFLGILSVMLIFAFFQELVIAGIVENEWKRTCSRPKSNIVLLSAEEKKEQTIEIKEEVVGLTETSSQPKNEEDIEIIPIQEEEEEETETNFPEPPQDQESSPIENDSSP

CD20 on Raji cells [10] = target: T3, CD20 on Raji cells; assay: flow cytometry on CD20-positive Raji cells

T1 sequence (Q95LI5 22-198): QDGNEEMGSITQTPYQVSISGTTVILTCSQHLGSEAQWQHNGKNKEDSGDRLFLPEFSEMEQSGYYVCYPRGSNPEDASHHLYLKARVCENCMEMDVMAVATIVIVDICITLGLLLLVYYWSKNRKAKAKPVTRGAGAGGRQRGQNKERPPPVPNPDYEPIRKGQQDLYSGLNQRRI

B1: Bispecific antibody AB11K (Anti-Mucin1×CD3, scFv1-scFv2-Fc) (bispecific antibody)
chain: EVQLVESGGGLVQPGGSMRLSCVASGFPFSNYWMNWVRQAPGKGLEWVGEIRLKSNNYTTHYAESVKGRFTISRDDSKNSLYLQMNSLKTEDTAVYYCTRHYYFDYWGQGTLVTVSSGGGGSGGGGSGGGGSDIVMTQSPLSNPVTPGEPASISCRSSKSLLHSNGITYFFWYLQKPGQSPQLLIYQMSNLASGVPDRFSGSGSGTDFTLRISRVEAEDVGVYYCAQNLELPPTFGQGTKVEIKGGGGGGSGGGGSGGGGSSSSSKAPPPSEVQLLESGGGLVQPGGSLKLSCAASGFTFNTYAMNWVRQAPGKGLEWVARIRSKYNNYATYYADSVKDRFTISRDDSKNTAYLQMNNLKTEDTAVYYCVRHGNFGNSYVSWFAYWGQGTLVTVSSGGGGSGGGGSGGGGSELVVTQEPSLTVSPGGTVTLTCRSSTGAVTTSNYANWVQQKPGQAPRGLIGGTNKRAPGTPARFSGSLLGGKAALTLSGVQPEDEAEYYCALWYSNLWVFGGGTKLTVLDKTHTCPPCPAPEAAGGPSVFLFPPKPKDQLMISRTPEVTCVVVDVSHEDPEVKFNWYVDGVEVHNAKTKPREEQYASTYRVVSVLTVLHQDWLNGKEYKCKVSNKALPASIEKTISKAKGQPREPQVYTLPPSRDELTKNQVSLTCLVKGFYPSDIAVEWESNGQPENNYKTTPPVLDSDGSFFLYSKLTVDKSRWQQGNVFSCSVLHEALHNHYTQKSLSLSPG
EC50 [1]: 10 nM

EC50 of activation of Jurkat T cells with NFAT RE reporter in the presence of Raji target cells [2]: 1.08 nM | EC50 [6]: 1.39 nM | EC50 [7]: ~5.5 nM | EC50 (read off the curve) [8]: ~1 nM
B2: Bispecific antibody AB1K2 (Anti-CD19×CD3, scFv1-scFv2-Fc) (bispecific antibody)
chain: QVQLQESGPGLVKPSQTLSLTCTVSGGSISTSGMGVGWIRQHPGKGLEWIGHIWWDDDKRYNPALKSRVTISVDTSKNQFSLKLSSVTAADTAVYYCARMELWSYYFDYWGQGTLVTVSSGGGGSGGGGSGGGGSEIVLTQSPATLSLSPGERATLSCSASSSVSYMHWYQQKPGQAPRLLIYDTSKLASGIPARFSGSGSGTDFTLTISSLEPEDVAVYYCFQGSVYPFTFGQGTKLEIKGGGGGGSGGGGSGGGGSSSSSKAPPPSEVQLLESGGGLVQPGGSLKLSCAASGFTFNTYAMNWVRQAPGKGLEWVARIRSKYNNYATYYADSVKDRFTISRDDSKNTAYLQMNNLKTEDTAVYYCVRHGNFGNSYVSWFAYWGQGTLVTVSSGGGGSGGGGSGGGGSELVVTQEPSLTVSPGGTVTLTCRSSTGAVTTSNYANWVQQKPGQAPRGLIGGTNKRAPGTPARFSGSLLGGKAALTLSGVQPEDEAEYYCALWYSNLWVFGGGTKLTVLDKTHTCPPCPAPEAAGGPSVFLFPPKPKDQLMISRTPEVTCVVVDVSHEDPEVKFNWYVDGVEVHNAKTKPREEQYASTYRVVSVLTVLHQDWLNGKEYKCKVSNKALPASIEKTISKAKGQPREPQVYTLPPSRDELTKNQVSLTCLVKGFYPSDIAVEWESNGQPENNYKTTPPVLDSDGSFFLYSKLTVDKSRWQQGNVFSCSVLHEALHNHYTQKSLSLSPG
EC50 of CIK-mediated killing of Raji-LUC cells [3]: 0.000699 nM | EC50 of CIK-mediated killing of Raji-LUC cells, second row [3]: 0.000202 nM | EC50 of PBMC-mediated killing of Raji-LUC cells [4]: 0.00123 nM | EC50 of PBMC-mediated killing of Raji-LUC cells, second row [4]: 0.00125 nM | EC50 of CIK-mediated killing of Reh cells [5]: 0.00171 nM

EC50 of activation of Jurkat NFATRE Luc reporter cells in the presence of CD20-positive Raji cells (CD20 on Raji cells [9]): 0.201 µg/mL | EC50 (CD20 on Raji cells [10]): ~70 nM
B3: Bispecific antibody AB2K (Anti-CD20×CD3, scFv1-scFv2-Fc) (bispecific antibody)
chain: QVQLQQPGAELVKPGASVKMSCKASGYTFTSYNMHWVKQTPGRGLEWIGAIYPGNGDTSYNQKFKGKATLTADKSSSTAYMQLSSLTSEDSAVYYCARSTYYGGDWYFNVWGAGTTVTVSAGGGGSGGGGSGGGGSQIVLSQSPAILSASPGEKVTMTCRASSSVSYIHWFQQKPGSSPKPWIYATSNLASGVPVRFSGSGSGTSYSLTISRVEAEDAATYYCQQWTSNPPTFGGGTKLEIKGGGGGGSGGGGSGGGGSSSSSKAPPPSEVQLLESGGGLVQPGGSLKLSCAASGFTFNTYAMNWVRQAPGKGLEWVARIRSKYNNYATYYADSVKDRFTISRDDSKNTAYLQMNNLKTEDTAVYYCVRHGNFGNSYVSWFAYWGQGTLVTVSSGGGGSGGGGSGGGGSELVVTQEPSLTVSPGGTVTLTCRSSTGAVTTSNYANWVQQKPGQAPRGLIGGTNKRAPGTPARFSGSLLGGKAALTLSGVQPEDEAEYYCALWYSNLWVFGGGTKLTVLDKTHTCPPCPAPEAAGGPSVFLFPPKPKDQLMISRTPEVTCVVVDVSHEDPEVKFNWYVDGVEVHNAKTKPREEQYASTYRVVSVLTVLHQDWLNGKEYKCKVSNKALPASIEKTISKAKGQPREPQVYTLPPSRDELTKNQVSLTCLVKGFYPSDIAVEWESNGQPENNYKTTPPVLDSDGSFFLYSKLTVDKSRWQQGNVFSCSVLHEALHNHYTQKSLSLSPG
EC50 of CIK-mediated killing of Raji-luc cells (luciferase) (CD20 on Raji cells [9]): 0.0428 µg/mL
